Test results published in the RNAGym collection of RNA variant scans (doi:10.1021/acssynbio.7b00057).

B1: Pistol ribozyme (parent)
chain: GGGUCGUUGUUCCAUAAUCGCGUGGAUAUGGCACGCAAGUUUCUACCGGGCACCGUAAAUGUCCGACUGGAGCCGUUCGGGCGGCUAUAAACAGACCUCAGGCCCGAAGCGUGGCGGCACCUGCCGCCGGUGGUAAAAAAGAUCGGAAGAGCACACGUCU

Variants of: B1
Assay: aptazyme ON/OFF ratio, guanine; higher = stronger switching; co-transcriptional cleavage with and without guanine

Row | Variant | aptazyme ON/OFF ratio
1 | U8G G9A U10G U11C C12A C13U | 1.18
2 | U8G G9A U10G U11C C12A C13G | 1.16
3 | U8G G9A U10G U11C C12A C13A | 1.18
4 | U8G G9C U10A U11G C12G C13A | 1.35
5 | U8G G9C U10A U11G C12G C13U | 1.22
6 | U8G G9C U10A U11G C12G C13G | 1.31
7 | U8G G9C U10A U11A | 1.18
8 | U8G G9C U10A U11C | 1.03
9 | U8G G9C U10A U11G | 1.18
10 | U8G G9A U11A C12U | 1.43
11 | U8G G9A U11A C12G | 1.17
12 | U8G G9A U11A C12A | 1.33
13 | U8G G9C U10A C12G C13A | 1.16
14 | U8G G9C U10A C12G C13G | 1.16
15 | U8G G9C U10A C12G C13U | 1.17
16 | U8G G9A U11C C12A | 1.34
17 | U8G G9A U11C C12G | 1.25
18 | U8G G9A U11C C12U | 1.07
19 | U8G G9A U11G C12U C13G | 1.16
20 | U8G G9A U11G C12U C13U | 1.24
21 | U8G G9A U11G C12U C13A | 1.2
22 | U8G G9A U10G U11A C13U | 1.14
23 | U8G G9A U10G U11A C13A | 1.14
24 | U8G G9A U10G U11A C13G | 1.21

Row | Variant | aptazyme ON/OFF ratio
25 | U8G G9A U10G U11G C12A C13A | 1.57
26 | U8G G9A U10G U11G C12A C13G | 1.16
27 | U8G G9A U10G U11G C12A C13U | 1.41
28 | U8G G9A U10G U11G C13A | 1.56
29 | U8G G9A U10G U11G C13U | 1.45
30 | U8G G9A U10G U11G C13G | 1.15
31 | U8G G9A U10G U11A C12G C13U | 1.24
32 | U8G G9A U10G U11A C12G C13A | 1.21
33 | U8G G9A U10G U11A C12G C13G | 1.03
34 | U8G G9C U10A C12A C13U | 1.17
35 | U8G G9C U10A C12A C13G | 1.12
36 | U8G G9C U10A C12A C13A | 1.13
37 | U8G G9C U10A U11G C12U C13A | 1.06
38 | U8G G9C U10A U11G C12U C13G | 1.1
39 | U8G G9C U10A U11G C12A C13A | 1.07
40 | U8G G9C U10A U11G C12A C13U | 1.16
41 | U8G G9C U10A U11G C12A C13G | 1.14
42 | U8G G9A U10G U11G C12G C13U | 1.37
43 | U8G G9A U10G U11G C12G C13G | 1.44
44 | U8G G9A U10G U11G C12G C13A | 1.19
45 | U8G G9A U11C C13U | 1.06
46 | U8G G9A U11C C13A | 1.07
47 | U8G G9A U11C C13G | 1.01
48 | U8G G9C U10A U11C C12G C13U | 1.14

Row | Variant | aptazyme ON/OFF ratio
49 | U8G G9C U10A U11C C12G C13G | 1.05
50 | U8G G9C U10A U11C C12G C13A | 1.05
51 | U8G G9C U10A C12U C13A | 1.15
52 | U8G G9C U10A C12U C13U | 1.07
53 | U8G G9C U10A C12U C13G | 1.1
54 | U8G G9A U11G | 1.18
55 | U8G G9A U11A | 1.59
56 | U8G G9A U11C | 1.05
57 | U8G G9A U10G U11A C12U | 1.35
58 | U8G G9A U10G U11A C12G | 1.6
59 | U8G G9C C13U | 1.04
60 | U8G G9C C13A | 1.04
61 | U8G G9C C13G | 1.03
62 | U8G G9A U11G C12A C13A | 1.16
63 | U8G G9A U11G C12A C13U | 1.24
64 | U8G G9A U11G C12A C13G | 1.2
65 | U8G G9A U10G U11C C12U C13A | 1.06
66 | U8G G9A U10G U11C C12U C13U | 1.06
67 | U8G G9A U10G U11C C12U C13G | 1.2
68 | U8G G9C U10A U11C C12U C13A | 1.09
69 | U8G G9C U10A U11C C12U C13G | 1.06
70 | U8G G9C U10A U11C C12U C13U | 1.02
71 | U8G G9A U11C C12A C13A | 1.34
72 | U8G G9A U11C C12A C13U | 1.3

Row | Variant | aptazyme ON/OFF ratio
73 | U8G G9A U11C C12A C13G | 1.16
74 | U8G G9C U10A U11A C12A C13G | 1.09
75 | U8G G9C U10A U11A C12A C13A | 1.12
76 | U8G G9C U10A U11A C12A C13U | 1.18
77 | U8G G9C U10A U11G C12G | 1.19
78 | U8G G9C U10A U11G C12U | 1.2
79 | U8G G9C U10A U11G C12A | 1.07
80 | U8G G9C C12G C13A | 1.05
81 | U8G G9C C12G C13U | 1.05
82 | U8G G9C C12G C13G | 1.03
83 | U8G G9C U10A U11A C12U | 1.18
84 | U8G G9C U10A U11A C12G | 1.16
85 | U8G G9C U10A U11A C12A | 1.18
86 | U8G G9A U11A C12U C13A | 1.24
87 | U8G G9A U11A C12U C13G | 1.18
88 | U8G G9A U11A C12U C13U | 1.27
89 | U8G G9A U11C C12G C13U | 1.4
90 | U8G G9A U11C C12G C13G | 1.18
91 | U8G G9A U11C C12G C13A | 1.17
92 | U8G G9C C12G | 1.05
93 | U8G G9C C12A | 1.07
94 | U8G G9C C12U | 1.07
95 | U8G G9C U10A C12A | 1.23
96 | U8G G9C U10A C12U | 1.08

Row | Variant | aptazyme ON/OFF ratio
97 | U8G G9C U10A C12G | 1.1
98 | U8G G9A U10G U11C C12G C13A | 1.27
99 | U8G G9A U10G U11C C12G C13U | 1.4
100 | U8G G9A U10G U11C C12G C13G | 1.25
101 | U8G G9A U11A C12A C13U | 1.15
102 | U8G G9A U11A C12A C13G | 1.25
103 | U8G G9A U11A C12A C13A | 1.19
104 | U8G G9C U10A | 1.13
105 | U8G G9A U11G C13G | 1.05
106 | U8G G9A U11G C13U | 1.04
107 | U8G G9A U11G C13A | 1.07
108 | U8G G9A U10G U11A C12U C13U | 1.47
109 | U8G G9A U10G U11A C12U C13A | 1.34
110 | U8G G9A U10G U11A C12U C13G | 1.33
111 | U8G G9A U11G C12A | 1.08
112 | U8G G9A U11G C12U | 1.34
113 | U8G G9A U11G C12G | 1.23
114 | U8G G9C U10A C13U | 1.09
115 | U8G G9C U10A C13A | 1.07
116 | U8G G9C U10A C13G | 1.06
117 | U8G G9A U10G U11C C12G | 1.19
118 | U8G G9A U10G U11C C12A | 1.19
119 | U8G G9A U10G U11C C12U | 1.02
120 | U8G G9C U10A U11C C13G | 1.04

Row | Variant | aptazyme ON/OFF ratio
121 | U8G G9C U10A U11C C13U | 1.03
122 | U8G G9C U10A U11C C13A | 1.04
123 | U8G G9C U10A U11A C12G C13G | 1.18
124 | U8G G9C U10A U11A C12G C13U | 1.18
125 | U8G G9C U10A U11A C12G C13A | 1.11
126 | U8G G9A U11G C12G C13U | 1.23
127 | U8G G9A U11G C12G C13A | 1.27
128 | U8G G9A U11G C12G C13G | 1.57
129 | U8G G9A U10G U11G C12A | 1.32
130 | U8G G9A U10G U11G C12G | 1.33
131 | U8G G9A U10G U11G C12U | 1.12
132 | U8G G9A U11C C12U C13U | 1.13
133 | U8G G9A U11C C12U C13G | 1.27
134 | U8G G9A U11C C12U C13A | 1.25
135 | U8G G9C U10A U11A C13G | 1.04
136 | U8G G9C U10A U11A C13A | 1.11
137 | U8G G9C U10A U11A C13U | 1.15
138 | U8G G9A U10G U11G | 1.59
139 | U8G G9A U10G U11C | 1.05
140 | U8G G9A U10G U11G C12U C13A | 1.36
141 | U8G G9A U10G U11G C12U C13U | 1.29
142 | U8G G9A U10G U11G C12U C13G | 1.46
143 | U8G G9A U11A C13A | 1.14
144 | U8G G9A U11A C13G | 1.07

Row | Variant | aptazyme ON/OFF ratio
145 | U8G G9A U11A C13U | 1.23
146 | U8G G9C C12A C13U | 1.07
147 | U8G G9C C12A C13A | 1.04
148 | U8G G9C C12A C13G | 1.03
149 | U8G G9A U11A C12G C13U | 1.26
150 | U8G G9A U11A C12G C13A | 1.08
151 | U8G G9A U11A C12G C13G | 1.17
152 | U8G G9C | 1.09
153 | U8G G9C C12U C13G | 1.04
154 | U8G G9C C12U C13A | 1.05
155 | U8G G9C C12U C13U | 1.06
156 | U8G G9C U10A U11C C12A C13G | 1.07
157 | U8G G9C U10A U11C C12A C13A | 1.06
158 | U8G G9C U10A U11C C12A C13U | 1.07
159 | U8G G9C U10A U11A C12U C13U | 1.19
160 | U8G G9C U10A U11A C12U C13A | 1.14
161 | U8G G9C U10A U11A C12U C13G | 1.1
162 | U8G G9A U10G U11C C13A | 1.06
163 | U8G G9A U10G U11C C13G | 1.05
164 | U8G G9A U10G U11C C13U | 1.05
165 | U8G G9C U10A U11C C12G | 1.14
166 | U8G G9C U10A U11C C12U | 1.04
167 | U8G G9C U10A U11C C12A | 1.12
